Laboratory results: the supplement of paper PMC7125110
± gives the standard error. Variants at the floor of the assay were thinned out.

B1: glmS ribozyme (parent)
chain: AUAAAAGCGCCAGAACUACAGAAAUGUAGUUGACGAGGAGGAGGUUUAUCGAAUUUUCGGCGGAUGCCUCCAAA

Experiments:
Conditions in all cases: with glucosamine-6-phosphate
[1] = variants of: B1; experiment: self-cleavage kobs at 40 uM GlcN6P; higher = faster cleavage; RNA array
Method in brief: (§1)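 The measurements used barcoded ribozyme variants on sequenced MiSeq chips, transcribed in situ by E. coli RNA polymerase and tracked at 37 °C with a hybridised Cy3 probe. Glucosamine-6-phosphate, 40 μM to 10 mM in HEPES/KCl/Mg(OAc)2 buffer, was flowed in while tiles were imaged over ~14 h. Baseline-normalised signals, also normalised to non-cleaving reference variants, gave per-tile medians that were fit to one- or two-exponential decays for kobs. kcat and KM resulted from weighted Michaelis–Menten fits across concentrations.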

[2] = variants of: B1; experiment: self-cleavage kobs at 160 uM GlcN6P; higher = faster cleavage; RNA array
Method in brief: as §1

[3] = variants of: B1; experiment: self-cleavage kobs at 640 uM GlcN6P; higher = faster cleavage; RNA array
Method in brief: as §1

[4] = variants of: B1; experiment: self-cleavage kobs at 2500 uM GlcN6P; higher = faster cleavage; RNA array
Method in brief: as §1

[5] = variants of: B1; experiment: self-cleavage kobs at 10000 uM GlcN6P; higher = faster cleavage; RNA array
Method in brief: as §1

Variant	self-cleavage kobs at 40 uM GlcN6P [1] [s⁻¹]	self-cleavage kobs at 160 uM GlcN6P [2] [s⁻¹]	self-cleavage kobs at 640 uM GlcN6P [3] [s⁻¹]	self-cleavage kobs at 2500 uM GlcN6P [4] [s⁻¹]	self-cleavage kobs at 10000 uM GlcN6P [5] [s⁻¹]
G41U C58G	< 1e-05	< 1e-05	< 1e-05	< 1e-05	< 1e-05
A36G U65G	< 1e-05	< 1e-05	< 1e-05	< 1e-05	< 1e-05
U31G C34U	< 1e-05	< 1e-05	< 1e-05		< 1e-05
C11G A39U G60A	< 1e-05	< 1e-05	< 1e-05	< 1e-05	
A6C A64U	< 1e-05	< 1e-05	< 1e-05		< 1e-05
U55C C68A	< 1e-05	< 1e-05	< 1e-05	< 1e-05	
A53U U56G	0.000405 ± 6.8e-05	0.000558 ± 0.00015	0.00241 ± 0.00042	0.00421 ± 0.0011	0.0151 ± 0.004
G43U U46A U57C C70A	< 1e-05		< 1e-05		< 1e-05
U30G A48G C71U	< 1e-05		< 1e-05		
G9A G13A C34G U49C C68U	< 1e-05				
C10G A33U G43U G63C C71G	< 1e-05				
G41C	1.75e-05 ± 1.7e-06	4.15e-05 ± 1.9e-06	0.000131 ± 3.6e-06	0.000529 ± 4.7e-05	0.00255 ± 0.00067
A12C G43C	< 1e-05	< 1e-05	< 1e-05		
C8U G38U U49G C50A C68G	0.00105 ± 0.00026				0.000545 ± 0.00014
C34G C50U	< 1e-05		< 1e-05		< 1e-05
G9C G63C	< 1e-05	< 1e-05	< 1e-05	< 1e-05	
A39U G66A	0.000403 ± 0.00015	0.000797 ± 0.00024	0.00167 ± 0.00076	0.00655 ± 0.0022	0.0134 ± 0.0056
A48U U49C	< 1e-05	< 1e-05		< 1e-05	< 1e-05
U47C G59U C70A	< 1e-05				
G29C C58G	< 1e-05			6.23e-05 ± 2.1e-05	4.93e-05 ± 1.5e-05

Variant	self-cleavage kobs at 40 uM GlcN6P [1] [s⁻¹]	self-cleavage kobs at 160 uM GlcN6P [2] [s⁻¹]	self-cleavage kobs at 640 uM GlcN6P [3] [s⁻¹]	self-cleavage kobs at 2500 uM GlcN6P [4] [s⁻¹]	self-cleavage kobs at 10000 uM GlcN6P [5] [s⁻¹]
A12C G62C	< 1e-05			< 1e-05	< 1e-05
A12U C70G	0.000124 ± 1.2e-05	0.000175 ± 2.3e-05	0.000558 ± 0.00013		0.001 ± 0.00029
G7U U54C	< 1e-05	< 1e-05	< 1e-05		< 1e-05
U46A U69A	< 1e-05		5.02e-05 ± 2e-05	0.00022 ± 6.2e-05	9.26e-05 ± 1.9e-05
A6C G40U	< 1e-05	< 1e-05	< 1e-05		
A14G C50A G51A	< 1e-05			< 1e-05	
G41A G62U C67G	< 1e-05				
U57A C61U	< 1e-05		< 1e-05	< 1e-05	< 1e-05
C8G G63C	< 1e-05	< 1e-05	< 1e-05	< 1e-05	
A42U C68A	< 1e-05	< 1e-05	< 1e-05		< 1e-05
U46C A64U	< 1e-05				4.69e-05 ± 1.5e-05
G13C G35A	< 1e-05	< 1e-05	< 1e-05	< 1e-05	< 1e-05
A12G G35C G60A U65G C68G	0.000127 ± 3.9e-05			0.000384 ± 0.00015	0.000121 ± 4.1e-05
A1U U2G A3G A5U A6C G7C C8A G9U C10A C11A	< 1e-05	< 1e-05	< 1e-05	< 1e-05	< 1e-05
A42C G51A	< 1e-05			< 1e-05	< 1e-05
G32A U47C A48G C71U	< 1e-05				
G7A C58U C68G	0.000285 ± 7.7e-05				
G7A G9C C16G	< 1e-05	< 1e-05	< 1e-05		< 1e-05
G41C G66A U69C	< 1e-05	< 1e-05			
G40C U49A	< 1e-05		< 1e-05		< 1e-05
